Measurements as given in the DeepSol protein solubility set.

Test: soluble on expression in E. coli; label from the status in PepcDB or PDB records
For “GPLGSGEEEPLPPRWSMQVAPNGRTFFIDHASRRTTWIDPRNGRAS”, the “soluble on expression in E. coli” value was “soluble”. In the case of “MTLPLNPAMAATFPPPVMEARRWIQGLSFPADRPLLNLSQAAPVEPPPAELRAALAEAALHDPQAHLYGPVLGLPALRAEIAAQWSAAYGGRIEPAQVAITQGCNQAFCAIMATLAGAGDEVILPTPWYFNHKMWLDMQGVMAVPLPTGPCLLPDAEEAAALVGPRTRAIVLVSPNNPGGVEYPAATLEAFRDLARARGLALIVDETYRDFDSRTGAPHALFADPDWDGVLVHLYSFSKAYRLTGHRVGAVVASAARLAQIEKFLDTVAICPSQLGQIGALWGIRNLAQWVAGERAEILARRTAMVGGFSALDGWTLLGCGAYFAYVEHPFDTPSDRLAPRLVQEAGVLLLPGTMFQPEGSEAGARQFRMAFANVDQAGIAELFSRLAQVTD”, the “soluble on expression in E. coli” value is reported as “not soluble”. For “MIPVKFKGATFGRLVKLEFEILRLGELKIDDISEFNTKDIKLEIRATSSGIKLIGVWEGDISEVGEAIKRALDESMKLRERLLRKMRNKVERIRKTLTEMGFSEESIGYGDAIRFTKRIGEYEVAIVVSSRDDIVRVEVYGGNKKLLAPELEAFFESVDIEELEIYDVDEDGREERVVINLELPKTDEKPEKRIIEAVKVLENILMA”, the “soluble on expression in E. coli” value was “soluble”. With “MSLKVGERHYHTIWLNEDGRSVDIIDQRWLPHEFRVVTLKTVADVADAIRDMWVRGAPLIGVTAAYGVAIAMAKDPSDAHLDAVWEELNETRPTAINLRWALNAMREYLRPLPEAERADAAYKRAAEIAEEDVELNRAIGANGLDVIREIASKKKPGEPVRILTHCNAGWLATVDYGTATAPIYMAVEEGIPVHVYVDETRPRNQGAYLTAWEMNGHGVPHTLIVDNAGGHLMQHGDIDMVIVGTDRTTANGDVCNKIGTYLKALAARDNDVPFYVALPSPTIDWTVQDGVKEIPIEERTADEVSFVQGRAADGSIASVRISPEGSPAANPAFDVTPARLITGLITERGIATPSPEGLKALFPERSEGHHHHHH” the “soluble on expression in E. coli” value was “soluble”. In the case of “MGSDKIHHHHHHMELKSAEEKSLYYRNKIKEVIDEVGKVVVGQKYMINRLLIGICTGGHILLEGVPGLAKTLSVNTLAKTMDLDFHRIQFTPDLLPSDLIGTMIYNQHKGNFEVKKGPVFSNFILADEVNRSPAKVQSALLECMQEKQVTIGDTTYPLDNPFLVLATQNPVEQEGTYPLPEAQVDRFMMKIHLTYLDKESELEVMRRVSNMNFNYQVQKIVSKNDVLEIRNEINKVTISESLEKYIIELVFATRFPAEYGLEAEASYILYGASTRAAINLNRVAKAMAFFNNRDYVLPEDIKEVAYDILNHRIILNYEAEAEGISTRQIIETILRKVNITKA”, the “soluble on expression in E. coli” value is reported as “not soluble”. For “MSLQIMLCAISNIASGNCSEDCKYCTQSAHVKTDIQKYRRKELSQIVLEAKMAKKNEALGFCLVTAGLGLDDEKLEYVCEAAKAVQKEVPNLLLIACNGMASVEQLKELKKAGIFSYNHNLESSKEFFPQICTTHTWESRFQTNLNAKEAGLMLCCGGIYGMGESEEDRLSFRKSLQELQPFSTPINFFIANENLKLQVPRLSADEALKIVRDTKEALPQSVVMVAGGREVVLRERQYEIFQAGAGAIVIGDYLTTKGEEPSQDIIKLKEMGFTFASECHEGHHHHHH”, the “soluble on expression in E. coli” value was “not soluble”. In the case of “SVDILVIPGHVRGDAAVISKVVGRPVYKGTVSPVYIPDIMKILRSGGKLDTEKPAEEVVKLSDYTSKIVFREAFRVGSLRIPLKPPPLLVVAEIPPTVAEDGIAGLAARMERDGASMVAVGTGFDDDPQVVHEKVRTALSALKDSPVIAETPTLDHAYSALKAGASGVIMPVETAVRLASEKPLPGDAFIIVSGEQPEELAKAVESLRTSGYSKVAVDPSLSPPLLGLLESIERFRRASRLLNVPLVFSAANVAEEVQADSHGVHALLALMALEAGASIYYVVEDSYKSYRSTAEAAEAARYASAARTLFSPRIPLTRLFVVKQPRRPPNPVEPPGERVNVDYIPPSMDRTGYAHIQVDHERGVIMLTFYPAGGEPVTFEGRKPTSLLRALTSRFPVSSEHAGYIGYELAKAEIALALGKTYVQDSPVLVPVWGGLDEE”, the “soluble on expression in E. coli” value is reported as “not soluble”. In the case of “QSEPELKLESVVIVSRHGVRAPTKATQLMQDVTPDAWPTWPVKLGWLTPRGGELIAYLGHYQRQRLVADGLLAKKGCPQSGQVAIIADVDERTRKTGEAFAAGLAPDCAITVHTQTDTSSPDPLFNPLKTGVCQLDNANVTDAILSRAGGSIADFTGHRQTAFRELERVLNFPQSNLCLKREKQDESCSLTQALPSELKVSADNVSLTGAVSLASMLTEIFLLQQAQGMPEPGWGRITDSHQWNTLLSLHNAQFYLLQRTPEVARSRATPLLDLIKTALTPHPPQKQAYGVTLPTSVLFIAGHDTNLANLGGALELNWTLPGQPDNTPPGGELVFERWRRLSDNSQWIQVSLVFQTLQQMRDKTPLSLNTPPGEVKLTLAGCEERNAQGMCSLAGFTQIVNEARIPACSL”, the “soluble on expression in E. coli” value is reported as “soluble”. In the case of “MRLRSMTKVLVLGARFGGLSAAYALKRLAGNKAEIKVINNTRFSYFRPALPHVATGVINENDVMVDLTKALPEKRINFQQGTVEKIDASGGLVYYTKPDGDKAEEDYDYLIIALGAHLGTELVKGWDKYGYSVCELDYALKLREKLKDFKGGTIAIGSGLFYQGKSPKPKVPENYVPVADAACEGPIFEMSLMLSGYFKKKGMLNKVKFVVFSPGEYLSDLSTMSRKIVREMYKQMGIELVDNFRIKEIRENEIADEAGKTIKADLTILIPPYTGNPALKNSTPDLIDDGGFVPTDLNMVSINYDNVYAVGDANSLTVPKLGYLAVKTGNIAAQHLATRLGVQVKVDQYYPTIICVADNPFEGFGIAVKDDTWYGGTTSIAAPSPINHIKKELFHKYFIWTKGDMALEKFLASWLEHHHHHH”, the “soluble on expression in E. coli” value is reported as “soluble”. With “QAALNSLGTNSVAATTAAQKIDQVATQPLMSFGVTMATFAAQNYGAHQYERIITGVKQTMWLSGSFSVAAGLIEIIWGKQLVGFFVGHQDMAVLNL” the “soluble on expression in E. coli” value was “not soluble”. With “MTHPRDSIALTSDSLVLRFLSESGIPISDNNKVRLLKSGREKFIDLFSAIRDAKHHIHLEYFNFRNDSIANALFDLLAEKVKEGVEVRAMFDAFGNWSNNKPLKKRHLKKIREQGIEIVKFDPFTFPYINHAAHRDHRKIAVIDGEVAYTGGMNIADYYINGLPKIGTWRDMHMRIEGDAVNDLQEIFLTIWNKETKQNIGGEAYFPKHKEQSDSTNVVVAIVDRTPKKNSRMLSHA” the “soluble on expression in E. coli” value was “not soluble”. With “MCIGVPVQVISPGQWFAKCRDRHGELIDVDIRLVAPPLAGAWLLTFGGAARREMDEAEAAEVLAALDSLEQAMLTQSDPLTGFADLLSRTPELPEHLKK” the “soluble on expression in E. coli” value was “not soluble”. With “MGSDKIHHHHHHMDLKEKILDYKDEVVKEIQNAVRVKSVKEAPLPGMPFGEGPAKALDHFMDLAKKLGFKAEKFDNYAMHIDMGEGKETLGILAHVDVVPEGDNWTYPPYSGTIADGKIFGRGTLDDKGPAIISLFAMKAIADSGVKLNKKIRMILGADEESGSACLKYYFGELKMPYPDIAFTPDSSFPVTYAEKGSVRVKIKKKFNTLQDLVIKGGNAFNSVPNEANGVIPVDMLGEVRNKNKVEFEREGNTYKVFSAGIPAHGAYPSKGYNAVSALFEVLKDIEVKNEELKGLVTFFDKFVKMETDGKSFGVKCTDGETGELTLNLGKINLENNELEIWIDMRIPVKVKNEQIIETIKENTEDYGYEFLLHSNTQPLYVAKDSFLVSTLMNIYKELTGDNDAEPVAIGGGTYAKYAKNAVAFGALLPDQEDRMHQRDEYLEISKIDKLLQIYVEAIYRLAK” the “soluble on expression in E. coli” value was “not soluble”. In the case of “MGSDKIHHHHHHMAFKTPLADRMRPQSLEQMVGQQDLLKAGQPLRQIIDQHVNIPLILWGPPGTGKTSLAQIIASQDDYPFVAFNASTENKAQLTKAIAQYPEQSFVLLIDEIHRMTKTLQDFLLPYLENGHVMLIGSTTENPIMSIVPAIRSRCQIFEFQPLSDTDIEIALRRAVTDIYNLTDDQVDAKALNLIAISAEGDLRIALNILETLHAIDQKQITVAAVQHFAQQQHFSYDRKATKHYDYLSAYSDSMAGSDTDAALYYLTILLKNDDLPSVVRRLREIPYTYIGLANPEQVTQIVVAANQAEKIGMPKAKYPLMFATMLMCISPKSGSFDQSWEKLDQDTQNPSQHPMPRGLRDMHYKHSEEITGGGLIDNPFQMPHQIAQQNYMPKGLAGRRYYYPKDNENERKLGAQYLKLHRFIYNEDYHE”, the “soluble on expression in E. coli” value is reported as “not soluble”. In the case of “MSLGQFWHVTDLHLDPTYHITDDHTKVCASSKGANASNPGPFGDVLCDSPYQLILSAFDFIKNSGQEASFMIWTGDSPPHVPVPELSTDTVINVITNMTTTIQSLFPNLQVFPALGNHDYWPQDQLPVVTSKVYNAVANLWKPWLDEEAISTLRKGGFYSQKVTTNPNLRIISLNTNLYYGPNIMTLNKTDPANQFEWLESTLNNSQQNKEKVYIIAHVPVGYLPSSQNITAMREYYNEKLIDIFQKYSDVIAGQFYGHTHRDSIMVLSDKKGSPVNSLFVAPAVTPVKSVLEKQTNNPGIRLFQYDPRDYKLLDMLQYYLNLTEANLKGESIWKLEYILTQTYDIEDLQPESLYGLAKQFTILDSKQFIKYYNYFFVSYDSSVTCDKTCKAFQICAIMNLDNISYADCLKQLYIKHNYEGHHHHHH”, the “soluble on expression in E. coli” value is reported as “not soluble”. For “MAHHHHHHMRTFSRTARITSSAACVGRFEHQGVSRDAVLARWSLQVVKPNAMKTGGLIGKGMKFASPLGPSGWATRNSGTGSTVLDVNWDLRERMDYYVHYSVPSTWTVVEHVSDNSVAIQSKPPVCDSPGAEGPTVHGFSLNCFAYKQKVKEPDCEKLLSLFLHRFDASVSNSLAVLSKASGRGNGVICGTAKPEQDISEVLANRLECAVAEITFTPAVGEPLAHGLCRAFYNSNRRFHYVVVVAVPEDEFTLSKDLLTHALLAVVESRVEAAPKGT”, the “soluble on expression in E. coli” value was “soluble”. With “MKVTAMDIYKLLPKTNCGKCGEASCMAFAAKLSQKEAELSACPQLKGADFEKLANMLAPAVREIKIGTGDRAVTIGGDEVLYRYELTYYNPTAVAVDLSDDMDDSAFDQKLVKIKNLEFERTGEILKLNAVALRNKSGDAEKFKKAAEKLKDSEIPVILCSFDPKAMDAALDVIGSKRPLIYAATENNIDEMSELALKHNCPISLFVPNDLEKMKQLSRKLRESGVKDIVLDPGTYIGEAIGDTMDNFIMIRRLAVEEKDDDFRFPILAVPAVCWINPEEDEILTKMKEATTAAALMNRYADVMILHGVDIWEMMPVLTLRQSLYTDPRKPQSVEAKIYEFGTVDENSPVIMTTNFALTYYTVAGDLKSGKVNCYLLVLDTNGKAVDVAVAGGQFNGKAAAELMKETGIEKLVNHKKLIIPGLAASVSGDIEDQSGWEVIVGTRDSSEVPAFLAKIW” the “soluble on expression in E. coli” value was “not soluble”. With “LHPDKCRAPHATEAFKALGNAYAVLSDTDKRRQYDQYGAEAANSHTPTTRRRGGGHGAFFEHDYAHGFEAEFTPEEIFNMFFGGGFPTEQVRRRARYAQQQQYHHYEQQQSPYGPLLQLLPLIAIMVIGLLAQLMVGEPAYSLHQTSKFTIKRLTADLRVPYFVRTDFETSYRGRIRQVEQQVEDDYIQNLRMNCYKEQNLKETKLYRARWMRDEAMMRDAERTPLPSCIRLNEIYSH” the “soluble on expression in E. coli” value was “not soluble”. With “MIKVAIIGAENVGKSTLMNALLGGKFSEVSETPGTTKGIIKRAFGKIKLPKTMKNPFGGADELVLIDTAGLFDPEKEIRGKVLSEEKFKELIKEIVNADVIIHMIDATKGLHRGMEKLHYMLKFRYEKPIIVVINKIDLVSREELERLRELVKKRLEQEPILLSLVTYEGFNELLKALTYYAQYVE” the “soluble on expression in E. coli” value was “soluble”. In the case of “MSEEPVAAPGTISHPVYKLKRNWTWWYLNDERNKSWEERLKNVKTFSSVGEFWALHDSIKPPSGLNPPSDYNVFRDGIEPMWEVPQNQNGGRWLITIEKGRTPEIMDTIWTEILMAMIGEQFSDDIESLCGIVCNVRGKGSKISVWTTNSADDGANLRIGGVLKQVLNNASMIHQRPLYDVLRYEDHESCQKKTSSGVKAKHAIYAVEPREEKAPVPVSTETPATPAT”, the “soluble on expression in E. coli” value is reported as “not soluble”. For “MTNNDTTLQLSSVLNRECTRSRVHCQSKKRALEIISELAAKQLSLPPQVVFEAILTREKMGSTGIGNGIAIPHGKLEEDTLRAVGVFVQLETPIAFDAIDNQPVDLLFALLVPADQTKTHLHTLSLVAKRLADKTICRRLRAAQSDEELYQIITDTEGTPDEA”, the “soluble on expression in E. coli” value was “soluble”.
